Test results taken from patent US5750365, “Isolated nucleic acid encoding a newt acidic fibroblast growth factor (AFGF)” (The Ohio State University Research Foundation, dated 1998).

Experiments:
bovine brain aFGF = bovine brain aFGF (bovine, UniProt P03968, 125I-labeled); assay: chemical crosslinking (DSS) on CHO-K1 cells over-expressing newt KGFR, SDS-PAGE
Method: (§1) CHO cells transfected with pBJ5 vector (lane 1) or with newt KGFR expression vector (lanes 2–4) were crosslinked with ^125I-aFGF using 0.3 mM disuccinimidyl suberate (DSS). Excess amounts (500-fold) of aFGF (lane 3) or KGF (lane 4) were used to compete with ^125I-aFGF. Crosslinked products were analyzed on a 7.5% SDS-polyacrylamide gel.
(§2) To characterize the newt FGFR cDNA functionally, the newt KGFR were expressed in CHO-K1 cells. The mammalian expression vector, pBJ5, which contains a chimeric promoter derived from HTLV-I and SV40, was used to express the newt KGFR and FGFR2 cDNA. […] The crosslinked product can be successfully competed off with a 500-fold molar excess of cold aFGF or human recombinant KGF as shown in FIG. 11. The crosslinked product is absent in KPTr1-8, the CHO cells that were transfected with the pBJ5 vector alone. The crosslinked product thus appears to be specific. Similarly, a cell line over-expressing the human KGFR (T-1063-29-2 from S. A. Aaronson, NIH) was able to produce a somewhat smaller crosslinked product than the newt KGFR. Antibodies (both monoclonal and polyclonal) directed against a peptide from the carboxyl terminus of the newt FGFR2 are generated.

recombinant human aFGF = recombinant human aFGF (human, UniProt P05230, 125I-labeled); assay: Scatchard plot of 125I-aFGF binding to KPTr2-2 cells (CHO-K1 expressing newt KGFR)
human recombinant KGF = target: T1, human recombinant KGF (human, UniProt P21781); assay: competition of 125I-aFGF crosslinking on KPTr2-2 cells; competitor in 500-fold molar excess
T1 sequence: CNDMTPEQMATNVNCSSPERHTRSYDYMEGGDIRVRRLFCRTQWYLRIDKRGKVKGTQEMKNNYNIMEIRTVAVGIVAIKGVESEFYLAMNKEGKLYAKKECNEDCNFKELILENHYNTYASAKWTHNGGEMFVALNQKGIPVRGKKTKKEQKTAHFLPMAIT
Method: as §1, §2

B1: newt KGFR (KGFR isoform, IIIb, of newt FGFR2; two Ig-like loop variant), expressed on CHO-K1 cells (KPTr2-2) (receptor)
chain: RPSYNIAEDTTLEPEDANSSGDDEDDNDGSEDFTNDNNHMRAPYWTNTEKLEKKLHAVPAANTVKFRCPAGGNPTPSMRWLKNGKEFKQEHRIGGFKVRSQHFSLIMESVVPSDEGNYTCIMENEYGSINHTYHLDVVERSPHRPILQAGLPANTTTKVGGDAEFVCKVYSDAQPHIQWIRHFELNGSKIGPDGHPYLKVLKRSGINSSNAEVLTLHNVTEADRGQYTCKVSNYIGEANQSAWLTVLPASEKDEERELDSSSEYTEIAIYCVGGFLITCMIGTIMVCHMKGRGKKSDFSSPPAVHKLSKSLPLRRQVTVSADSSSSMNSNTPLVRITTRLSSNNDTHLLAGVSEYELPEDPKWEYPREKLTLGKPLGEGCFGQVVMAEAVGIDKDRPKDAATVAVKMLKDDATEKDLSDLVSEMEMMKMIGKHKNIINLLGACTQDGPLYVIVEYASKGNLREYLRTRRPPGMEYSFDINRIPEEQMTFKDLVSCTYQLARGMEYLASQKCIHRDLAARNVLVTETNVMKIADFGLARDINNIDYYKKTTNGRLPVKWMAPEALFDRVYTHQSDVWSFGVLMWEIFTLGGSPYPGIPVEELFKLLKEGHRMDKPGNCTNELYTMMTDCWRAVPSQRPTFKQLVEDLDRILTQTTNEEYLDLNNPLEQYSPSYPDTRSSCSSGDDSVFSPDAMPYDPCLPKSQHTNGTIKT
Bovine brain aFGF
  binding result: binds
Recombinant human aFGF
  Kd: 1.3 nM
Human recombinant KGF
  binding result: binds
